What is called pKa is the pH at which an ionisable group is half protonated. For orientation: stoichiometry N means a count of units in the complex or per binding partner.

Here are results for 8 molecules from publication PMC11724882, “Molecular basis for the enzymatic inactivity of class III glutaredoxin ROXY9 on standard glutathionylated substrates” (Nature Communications, 2025).

For data set [1], the target named is Cys23 (UniProt position 23, FSKTYCPYCVR). The data set is described as follows: chemical modification. The settings on record: buffers at a normality of 0.1; no added salt stated; citrate pH 2.0-6.0; KH2PO4/Na2HPO4 pH 6.5-8.0; Na2B4O7 pH 8.5-10.0. Protein was desalted into 5 mM HEPES pH 7.0. 10 µl protein was mixed with 40 µl pH buffer and 5 µl 100 mM IAM.; Pre-reduced with 10 mM DTT and desalted; no glutathione or other ligand; native protein during the IAM step.

Data set [2] addresses Cys23 (UniProt position 23, FSKTYCPYSVR). Kind of data set: chemical modification. The note with it: buffers at a normality of 0.1; no added salt stated; citrate pH 2.0-6.0; KH2PO4/Na2HPO4 pH 6.5-8.0; Na2B4O7 pH 8.5-10.0. Protein was desalted into 5 mM HEPES pH 7.0. 10 µl protein was mixed with 40 µl pH buffer and 5 µl 100 mM IAM.; Pre-reduced with 10 mM DTT and desalted; no glutathione or other ligand; native protein during the IAM step.

The target in data set [3] is Cys21 (UniProt position 21, FTKSSCCLCYA). The data set is described as follows: chemical modification. The note with it: buffers at a normality of 0.1; no added salt stated; citrate pH 2.0-6.0; KH2PO4/Na2HPO4 pH 6.5-8.0; Na2B4O7 pH 8.5-10.0. Protein was desalted into 5 mM HEPES pH 7.0. 10 µl protein was mixed with 40 µl pH buffer and 5 µl 100 mM IAM.; Pre-reduced with 10 mM DTT and desalted; no glutathione or other ligand; native protein during the IAM step.

The target in data set [4] is Cys21 (UniProt position 21, FTKSSCSLSYA). Kind of data set: chemical modification. The note with it: buffers at a normality of 0.1; no added salt stated; citrate pH 2.0-6.0; KH2PO4/Na2HPO4 pH 6.5-8.0; Na2B4O7 pH 8.5-10.0. Protein was desalted into 5 mM HEPES pH 7.0. 10 µl protein was mixed with 40 µl pH buffer and 5 µl 100 mM IAM.; Pre-reduced with 10 mM DTT and desalted; no glutathione or other ligand; native protein during the IAM step.

The target in data set [5] is Cys22 (UniProt position 23, FIKPTCPFARK). The settings on record: cited from earlier work.
For data set [6], the target named is Cys22 (UniProt position 23, FIKPTCPFSRK). The settings on record: cited from earlier work.
Data set [7] concerns the target Cys22 (UniProt position 23, FIKPTCPFCRK). The settings on record: cited from earlier work.
Data set [8] concerns the molecule itself. Kind of data set: SEC; analytical gel filtration of the affinity-purified strep-MBP fusion proteins (purified in the presence of 5 mM GSH); strep-MBP-ROXY9 also after DTT treatment.

Several values for one entry are separate records, joined by “and”; a condition that tells them apart may be missing. Equal values may be shown once.

As to “Glutaredoxin GRXC2 (class I GRX), strep-MBP fusion, wild type (Arabidopsis thaliana)”, the pKa entry in the data set with Cys23 [1] was “between 3.0 and 3.5”. As to “Glutaredoxin GRXC2-CSS variant (only CysA retained), strep-MBP fusion (Arabidopsis thaliana; C26S;C80S)”, the pKa entry with Cys23 [2] is “between 3.5 and 4.0”. “Glutaredoxin ROXY9 (class III / CC-type GRX, CEPD2), strep-MBP fusion, wild type (Arabidopsis thaliana)”: in the data set with Cys21 [3], the pKa entry was “between pH 4 and 4.5”. “Glutaredoxin ROXY9 single-cysteine variant (only Cys21 retained), strep-MBP fusion (Arabidopsis thaliana; C22S;C24S;C49S;C61S)”: in the data set with Cys21 [4], the pKa result is “between 6 and 7”. Regarding “Pig glutaredoxin (liver thioltransferase) C25A (Sus scrofa; C25A)”, the pKa in the data set with Cys22 [5] is on record as 5.9. Take “Pig glutaredoxin (liver thioltransferase) C25S (Sus scrofa; C25S)”: in the data set with Cys22 [6], the pKa is given as 4.9. Regarding “Pig glutaredoxin (liver thioltransferase), wild type (Sus scrofa)”, the pKa in the data set with Cys22 [7] is 3.8.

B1: strep-MBP-ROXY9 (enzyme, Arabidopsis thaliana, UniProt O82255 1-102, looked up)
chain: MDKVMRMSSEKGVVIFTKSSCCLCYAVQILFRDLRVQPTIHEIDNDPDCREIEKALLRLGCSTAVPAVFVGGKLVGSTNEVMSLHLSGSLVPLIKPYQSILY
notes: class III glutaredoxin ROXY9, Arabidopsis thaliana, AT2G47880; ORF inserted into a variant of MacroLab vector 438-C (modified pFastBac, Addgene plasmid 48296) in which the His-tag was exchanged for Strep-tag II; a TEV site lies between the tag and ROXY9; also called class III GRX ROXY9; CEPD2; source: Hi5 insect cells (baculovirus), purified (MBPTrap, eluted with maltose, 5 mM GSH in buffer)
Regarding B1, in data set [8], the “stoichiometry N” value is 2 and 3.
